{"source": "patent US20120071422A1", "about": "(MEDICAL DIAGNOSTIC LABORATORIES, published 2012)", "binders": {"B1": {"name": "recombinant human IL-23 cytokine (p19 + p40) (ligand)", "chain 1": "RAVPGGSSPAWTQCQQLSQKLCTLAWSAHPLVGHMDLREEGDEETTNDVPHIQCGDGCDPQGLRDNSQFCLQRIHQGLIFYEKLLGSDIFTGEPSLLPDSPVGQLHASLLGLSQLLQPEGHHWETQQIPSLSPSQPWQRLLLRFKILRSLQAFVAVAARVFAHGAATLSP", "chain 2": "IWELKKDVYVVELDWYPDAPGEMVVLTCDTPEEDGITWTLDQSSEVLGSGKTLTIQVKEFGDAGQYTCHKGGEVLSHSLLLLHKKEDGIWSTDILKDQKEPKNKTFLRCEAKNYSGRFTCWWLTTISTDLTFSVKSSRGSSDPQGVTCGAATLSAERVRGDNKEYEYSVECQEDSACPAAEESLPIEVMVDAVHKLKYENYTSSFFIRDIIKPDPPKNLQLKPLKNSRQVEVSWEYPDTWSTPHSYFSLTFCVQVQGKSKREKKDRVFTDKTSATVICRKNASISVRAQDRYYSSSWSEWASVPCS", "notes": "Disulfide-linked heterodimer"}}, "key": {"[1]": {"target": "T1, recombinant human His-tagged soluble IL-12Rβ1 (human, UniProt P42701 24-545, limits assumed)", "T1 construct": "Bought (R&D Systems); also called sIL-12Rβ1; shIL-12Rβ1; not shown: His tag", "experiment": "anti-Flag immunoprecipitation without IL-23, anti-His immunoblot", "from_the_text": "On the cell surface, human IL-23Rα combines with human IL-12Rβ1 to form the heterodimeric IL-23 receptor. Human IL12Rβ1 also partners with human IL12Rβ2 to form the cell-surface IL-12 receptor. We wanted to know whether Δ9 could link to human IL-12Rβ1 via IL-23, or indeed bind it directly.\n(§1) Culture medium from Δ9 transfection experiments was concentrated using Amicon ultra centrifugal filter 30K (Millipore), then Δ9 protein was affinity purified using anti-FLAG M2 affinity gel (Sigma). The immuno-complex was precipitated, washed and resuspended in PBS. 200 ng of either IL-12 or IL-23 was added to the suspension and incubated at 4° C. for 2 hours. Reprecipitated FLAG-tagged Δ9 immuno-complex was again precipitated and eluted with excess FLAG peptide. The eluted product was analysed by immunoblot using anti-human p40 or anti-human IL-23R to detect the common p40 subunit of IL-12/IL-23 or Δ9, respectively. […] After extensive washing, the eluted product was analysed using anti-HIS (Invitrogen, Carlsbad Calif.), anti-human p40 or anti-human IL-23R(R&D Systems) to detect soluble IL-12Rβ1, the p40 subunit of IL-23 or Δ9, respectively. […] Immuno-precipitation was performed and analysed by immunoblot, probing with anti-hIL-12/23p40."}, "[2]": {"target": "B1", "experiment": "anti-Flag immunoprecipitation, anti-p40 immunoblot", "method": "200 ng of human IL-23 cytokine was added to the immunoprecipitation reaction. The presence of IL-23 in the precipitate was examined by immunoblot using anti-hIL-12/23 p40 antibody.\nIn addition, we also prepared two (2) more IL-23Rα deletion mutants; namely, 1-250 mutant and 1-200 mutant. These deletion mutants were generated by PCR (See, FIG. 18). Together, all of the four (4) IL-23Rα protein variants (FIG. 18) were tagged with Flag sequence at the C-terminus. […] The culture media were collected 48 hours post-transfection. These four (4) deletion proteins were immunoprecipitated using anti-Flag affinity gel. 200 ng of IL-23 cytokine was added to the immunoprecipitation assay. […] We speculate that the 1-200 mutant may be improperly folded or missing a critical domain that is essential for binding to IL-23 cytokine. […]\nCulture medium from Δ9 transfection experiments was concentrated using Amicon ultra centrifugal filter 30K (Millipore), then Δ9 protein was affinity purified using anti-FLAG M2 affinity gel (Sigma). […] The eluted product was analysed by immunoblot using anti-human p40 or anti-human IL-23R to detect the common p40 subunit of IL-12/IL-23 or Δ9, respectively. […] After extensive washing, the eluted product was analysed using anti-HIS (Invitrogen, Carlsbad Calif.), anti-human p40 or anti-human IL-23R(R&D Systems) to detect soluble IL-12Rβ1, the p40 subunit of IL-23 or Δ9, respectively."}, "[3]": {"target": "T2, recombinant IL-12 (p35 + p40) (UniProt P29459 23-219; P29460 23-328)", "T2 sequence (looked up) 1": "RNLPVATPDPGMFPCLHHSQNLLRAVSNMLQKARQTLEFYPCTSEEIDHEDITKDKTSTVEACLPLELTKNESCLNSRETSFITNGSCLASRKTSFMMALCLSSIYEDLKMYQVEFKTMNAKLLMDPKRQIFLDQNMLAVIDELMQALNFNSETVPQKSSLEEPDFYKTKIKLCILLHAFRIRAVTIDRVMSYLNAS", "T2 sequence (looked up) 2": "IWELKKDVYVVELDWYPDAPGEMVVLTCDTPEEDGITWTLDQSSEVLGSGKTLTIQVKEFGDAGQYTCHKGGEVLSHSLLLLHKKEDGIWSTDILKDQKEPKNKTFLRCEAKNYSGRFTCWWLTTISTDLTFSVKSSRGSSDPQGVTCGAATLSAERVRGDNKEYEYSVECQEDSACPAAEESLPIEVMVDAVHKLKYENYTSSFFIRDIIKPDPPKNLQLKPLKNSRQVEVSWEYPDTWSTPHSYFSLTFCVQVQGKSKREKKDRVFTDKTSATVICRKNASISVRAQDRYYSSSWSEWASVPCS", "experiment": "anti-Flag immunoprecipitation, anti-hIL-12/23 p40 immunoblot", "method": "FIG. 17 depicts the binding specificity of the recombinant Δ9 protein. Immunoprecipitation experiments were performed using anti-Flag M2 affinity gel. Immunoblot experiment was performed to detect IL-12 and IL-23 in the precipitates using the anti-hIL-12/23 p40 (i.e., anti-human IL-12/23 p40). The recombinant Δ9 protein in the precipitates was detected by anti-human IL-23R. Only IL-23 but not IL-12 was detected in the reaction containing the recombinant Δ9 protein.\nas §1, with “Reprecipitated FLAG-tagged Δ9 immuno-complex was again precipitated and eluted with excess FLAG peptide.” left out"}, "[4]": {"target": "B1", "experiment": "immunoprecipitation and competitive ELISA", "method": "We developed a competitive ELISA to further examine the ability of the deletion protein mutants (i.e., Δ9, Δ8,9 and 1-250 mutant) to compete (i.e., interfere) the binding of IL-23 cytokine to the full-length extracellular domain of IL-23Rα (See, “Materials & Methods”). Recombinant IL-23Rα-Fc fusion protein from R&D (2 μg/ml) was coated on the ELISA plate. IL-23 cytokine (50 ng) was added in the absence or presence of the deletion protein mutants as competitors.\nRecombinant human IL-23R-Fc (2 μg/ml) (from R&D) was coated onto plates as a capture reagent. Biotinylated anti-p40 antibody (1:250) (which specifically recognizes the p40 subunit of IL-23) was used as a detection antibody. Streptavidin—horseradish peroxidase (HRP) (1:500) was added to detect the biotinlyated anti-p40 antibody. The peroxidase activity (representing the level of IL-23 captured onto plates) was measured by addition of a tetramethylbenzidine (TMB) substrate (100 μl/well). The color intensity was directly proportion to the amount of the bound IL-23 protein. The color was measured at optical density (OD) 450 nm using a microtiter plate reader."}, "[5]": {"target": "T1, recombinant human His-tagged soluble …", "experiment": "anti-Flag immunoprecipitation of Δ9 with IL-23 (200 ng) and sIL-12Rβ1 (1 µg); IL-23 bound to Δ9", "method": "Human IL12Rβ1 also partners with human IL12Rβ2 to form the cell-surface IL-12 receptor. We wanted to know whether Δ9 could link to human IL-12Rβ1 via IL-23, or indeed bind it directly.\nCulture medium from Δ9 transfection experiments was concentrated using Amicon ultra centrifugal filter 30K (Millipore), then Δ9 protein was affinity purified using anti-FLAG M2 affinity gel (Sigma). The immuno-complex was precipitated, washed and resuspended in PBS. 200 ng of either IL-12 or IL-23 was added to the suspension and incubated at 4° C. for 2 hours. Reprecipitated FLAG-tagged Δ9 immuno-complex was again precipitated and eluted with excess FLAG peptide. The eluted product was analysed by immunoblot using anti-human p40 or anti-human IL-23R to detect the common p40 subunit of IL-12/IL-23 or Δ9, respectively. […] After extensive washing, the eluted product was analysed using anti-HIS (Invitrogen, Carlsbad Calif.), anti-human p40 or anti-human IL-23R(R&D Systems) to detect soluble IL-12Rβ1, the p40 subunit of IL-23 or Δ9, respectively. To examine the N-glycosylation modification on soluble human IL-23Rα, purified Δ9 was treated with N-Glycosidase F (PNGase F) at 37° C. for 1 hour followed by immunoblotting using anti-human IL-23R. […] Immuno-precipitation was performed and analysed by immunoblot, probing with anti-hIL-12/23p40."}}, "data": [{"binder": "recombinant Δ9 protein (soluble truncated human IL-23Rα, exon 9 deletion splice variant), C-terminal Flag tag (receptor, N-glycosylated (sites not given), Said to be a monomer; also called Δ9 variant; Δ9 IL-23Rα; not shown: C-terminal Flag tag) GITNINCSGHIWVEPATIFKMGMNISIYCQAAIKNCQPRKLHFYKNGIKERFQITRINKTTARLWYKNFLEPHASMYCTAECPKHFQETLICGKDISSGYPPDIPDEVTCVIYEYSGNMTCTWNAGKLTYIDTKYVVHVKSLETEEEQQYLTSSYINISTDSLQGGKKYLVWVQAANALGMEESKQLQIHLDDIVIPSAAVISRAETINATVPKTIIYWDSQTTIEKVSCEMRYKATTNQTWNVKEFDTNFTYVQQSEFYLEPNIKYVFQVRCQETGKRYWQPWSSLFFHKTPETVPQVTSKAFQHDTWNSGLTVASISTGHLTSGLKEGSYC", "values": [{"measurement": "binding result", "setting": "[1]", "value": "no binding (tested: 1 µg)"}, {"measurement": "binding result", "setting": "[2]", "value": "binds"}, {"measurement": "binding result", "setting": "[3]", "value": "no binding (tested: 200 ng)"}]}, {"binder": "recombinant Δ8,9 protein (soluble truncated human IL-23Rα, exon 8 and 9 deletion splice variant), C-terminal Flag tag (receptor, not shown: C-terminal Flag tag) GITNINCSGHIWVEPATIFKMGMNISIYCQAAIKNCQPRKLHFYKNGIKERFQITRINKTTARLWYKNFLEPHASMYCTAECPKHFQETLICGKDISSGYPPDIPDEVTCVIYEYSGNMTCTWNAGKLTYIDTKYVVHVKSLETEEEQQYLTSSYINISTDSLQGGKKYLVWVQAANALGMEESKQLQIHLDDIVIPSAAVISRAETINATVPKTIIYWDSQTTIEKVSCEMRYKATTNQTWNVKEFDTNFTYVQQSEFYLEPNIKYVFQVRCQETGKRYWQPWSSLFFHKTPETGLKEGSYC", "values": [{"measurement": "binding result", "setting": "[4]", "value": "binds"}]}, {"binder": "B1", "values": [{"measurement": "binding result", "setting": "[5]", "value": "binds"}]}]}
